Data as given in article PMC5599542.

Tests used:
GRB2 = GRB2 (UniProt P62993); test: FLAG affinity purification, Western blot; conditions: reference: wild type
PTPN11/SHP2 = PTPN11/SHP2 (UniProt Q06124); test: FLAG affinity purification, Western blot; conditions: reference: wild type; sites Y241,Y263

Substance: MPZL1 (PZR) (from UniProt O95297) Y263F
- binding against the reference (GRB2; sites Y263): weaker

Substance: MPZL1 (PZR) (from UniProt O95297) Y241F/Y263F
- binding against the reference (PTPN11/SHP2): lost

Substance: MPZL1 (PZR) (from UniProt O95297) Y241F
- binding against the reference (GRB2; sites Y241): weaker
